Patent US20040254347
“Also recorded” adds a separate entry of the source.

Assays:
[1] = target: T1, Fusion Protein No:1 (GST fused with insert SEQ ID NO:2)
T1 chain: QIKS

[2] = target: T2, Fusion protein FP#2 (GST fused with insert SEQ ID NO:3)
T2 chain: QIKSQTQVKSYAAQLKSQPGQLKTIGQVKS

[3] = target: T3, Fusion protein FP#3 (GST fused with insert SEQ ID NO:4)
T3 chain: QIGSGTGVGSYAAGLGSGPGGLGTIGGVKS

B1: tissue transglutaminase from guinea pig's liver (protein)
chain: AEDLILERCDLQLEVNGRDHRTADLCRERLVLRRGQPFWLTLHFEGRGYEAGVDTLTFNAVTGPDPSEEAGTMARFSLSSAVEGGTWSASAVDQQDSTVSLLLSTPADAPIGLYRLSLEASTGYQGSSFVLGHFILLYNPRCPADAVYMDSDQERQEYVLTQQGFIYQGSAKFINGIPWNFGQFEDGILDICLMLLDTNPKFLKNAGQDCSRRSRPVYVGRVVSAMVNCNDDQGVLQGRWDNNYSDGVSPMSWIGSVDILRRWKDYGCQRVKYGQCWVFAAVACTVLRCLGIPTRVVTNFNSAHDQNSNLLIEYFRNESGEIEGNKSEMIWNFHCWVESWMTRPDLEPGYEGWQALDPTPQEKSEGTYCCGPVPVRAIKEGHLNVKYDAPFVFAEVNADVVNWIRQKDGSLRKSINHLVVGLKISTKSVGRDEREDITHTYKYPEGSEEEREAFVRANHLNKLATKEEAQEETGVAMRIRVGQNMTMGSDFDIFAYITNGTAESHECQLLLCARIVSYNGVLGPVCSTNDLLNLTLDPFSENSIPLHILYEKYGDYLTESNLIKVRGLLIEPAANSYVLAERDIYLENPEIKIRVLGEPKQNRKLIAEVSLKNPLPVPLLGCIFTVEGAGLTKDQKSVEVPDPVEAGEQAKVRVDLLPTEVGLHKLVVNFECDKLKAVKGYRNVIIGPA
cross-linking by transglutaminase, SDS-PAGE [1]: FP#1 was cross-linked to a dimer by the enzyme reaction; also recorded: FP#1, with the essential sequence of QXKS/T, is a good substrate of transglutaminases from different sources
cross-linking by transglutaminase, SDS-PAGE [2]: the enzyme-catalyzed cross-links of FP#2 were very striking ... There were almost no FP#2 monomer left after the enzyme reaction
cross-linking by transglutaminase, SDS-PAGE [3]: the enzyme was able to cross-link FP#3

B2: mouse coagulating gland transglutaminase (TG4) (protein)
chain: MDSRNVLIIYAVNVERKLNAAAHHTSEYQTKKLVLRRGQIFTLKVILNRPLQPQDELKVTFTSGQRDPPYMVELDPVTSYRSKGWQVKIAKQSGVEVILNVISAADAVVGRYKMRVNEYKAGVFYLLFNPWCSDDSVFMASEEERAEYILNDTGYMYMGFAKQIKEKPWTFGQFEKHILSCCFNLLFQLENNEMQNPVLVSRAICTMMCAANGGVLMGNWTGDYADGTAPYVWTSSVPILQQHYVTRMPVRYGQCWVFSGILTTALRAVGIPARSVTNFESAHDTEKNLTVDIYLDESGKTIPHLTKDSVWNFHVWTDAWMKRQDLPHGYDGWQVLDSTPQEISDGGFRTGPSPLTAIRQGLIQMKYDTTFVFTEVNGDKFIWLVKQNQEREKNILIAVETASLGKKISTKMVGENRREDITLQYRFPEGSPEERKVMAKASGKPSDDKLNSRTLNNSLQISVLQNSLELGAPIYLTITLKRKTATPQNVNISCSLNLQTYTGNKKTNLGVIQKTVQIHGQESRVFLTMDASYYIYKLGMVDDEMVIGGFIIAEIVDSGERVATDTTLCFLYSAFSVEMPSTGKVKQPLVITSKFTNTLPIPLTNIKFSVESLGLANMKSWEQETVPPGKTITFQMECTPVKAGPQKFIVKFISRQVKEVHAEKVVLISK
cross-linking by transglutaminase, SDS-PAGE [1]: FP#1, with the essential sequence of QXKS/T, is a good substrate of transglutaminases from different sources

B3: Thrombin-activated factor XIII (human blood factor XIII) (protein)
chain: GVNLQEFLNVTSVHLFKERWDTNKVDHHTDKYENNKLIVRRGQSFYVQIDFSRPYDPRRDLFRVEYVIGRYPQENKGTYIPVPIVSELQSGKWGAKIVMREDRSVRLSIQSSPKCIVGKFRMYVAVWTPYGVLRTSRNPETDTYILFNPWCEDDAVYLDNEKEREEYVLNDIGVIFYGEVNDIKTRSWSYGQFEDGILDTCLYVMDRAQMDLSGRGNPIKVSRVGSAMVNAKDDEGVLVGSWDNIYAYGVPPSAWTGSVDILLEYRSSENPVRYGQCWVFAGVFNTFLRCLGIPARIVTNYFSAHDNDANLQMDIFLEEDGNVNSKLTKDSVWNYHCWNEAWMTRPDLPVGFGGWQAVDSTPQENSDGMYRCGPASVQAIKHGHVCFQFDAPFVFAEVNSDLIYITAKKDGTHVVENVDATHIGKLIVTKQIGGDGMMDITDTYKFQEGQEEERLALETALMYGAKKPLNTEGVMKSRSNVDMDFEVENAVLGKDFKLSITFRNNSHNRYTITAYLSANITFYTGVPKAEFKKETFDVTLEPLSFKKEAVLIQAGEYMGQLLEQASLHFFVTARINETRDVLAKQKSTVLTIPEIIIKVRGTQVVGSDMTVTVEFTNPLKETLRNVWVHLDGPGVTRPMKKMFREIRPNSTVQWEEVCRPWVSGHRKLIASMSSDSLRHVYGELDVQIQRRPSM
cross-linking by transglutaminase, SDS-PAGE [1]: FP#1, with the essential sequence of QXKS/T, is a good substrate of transglutaminases from different sources
